Target: MICAL1-oxidized actin filaments (alpha-skeletal actin, rabbit) (rabbit) (UniProt P68135)
Assay: single-filament microfluidics with fluorescence microscopy

- growth rate of single cofilin-1 domains, normalized by the cofilin concentration: 10 sub/s/µM
Substance: eGFP-S3D-cofilin-1 (from UniProt P18760 1-166) (natural protein)
